Measured values published in article doi:10.1101/2023.05.22.541692.

Biological target: AtCYT6-CTD (C-terminal cystatin domain of phytocystatin 6) (UniProt Q8H0X6)
Experiment: Enzyme inhibition kinetics
Settings: pH 5.5; 25 °C; 100 mM NaCl; 20 mM citric acid pH 5.5

UniProt Q8H0X6, sequence (Q8H0X6 whole entry, the tested form may be a part): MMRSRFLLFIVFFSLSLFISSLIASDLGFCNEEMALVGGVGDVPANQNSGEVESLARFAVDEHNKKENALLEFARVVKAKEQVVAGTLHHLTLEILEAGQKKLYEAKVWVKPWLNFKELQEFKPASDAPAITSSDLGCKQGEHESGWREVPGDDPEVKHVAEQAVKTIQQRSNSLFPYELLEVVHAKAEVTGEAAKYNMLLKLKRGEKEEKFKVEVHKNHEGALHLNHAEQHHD

Ki: 0.61 ± 0.23 nM
Substance: AtLEGβ (legumain isoform β, vacuolar processing enzyme β), activated catalytic domain
